# Measured values published in the supplement of paper PMC10598134.
# ± gives the standard deviation.
# Test: collision cross section of modified peptide (TIMS, N2, iRT-aligned); higher = larger / more extended gas-phase ion
# In short: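 Collision cross section was derived from the Mason-Schamp equation. Each value averages 1–3 technical replicates of the most abundant feature per charge state, measured on a timsTOF Pro/HT in dda-PASEF mode (nitrogen, ~2.4 mbar) after a 120-min nanoflow C18 gradient at 60 °C. Synthetic peptide pools (~100 fmol/µL in 2% acetonitrile/0.1% formic acid, iRT standard spiked 1:40) were identified with MaxQuant, and 1/K0 was calibrated with three reference ions and aligned run-wise to the median iRT peptide deviation.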
# [1] = charge state: 2, modification: Citrullination (R)
# [2] = charge state: 2, modification: Methyl (R)
# [3] = charge state: 3, modification: HexNAc (ST)
# [4] = charge state: 3, modification: Methyl (R)
# [5] = charge state: 2, modification: HexNAc (ST)
# [6] = charge state: 2, modification: Acetyl (K)
# [7] = charge state: 2, modification: Biotin
# [8] = charge state: 2, modification: Butyryl
# [9] = charge state: 2, modification: Crotonyl
# [10] = charge state: 2, modification: Formyl
# [11] = charge state: 2, modification: Glutarylation
# [12] = charge state: 2, modification: GlyGly (K)
# [13] = charge state: 3, modification: GlyGly (K)
# [14] = charge state: 2, modification: Malonyl
# [15] = charge state: 2, modification: Methyl (K)
# [16] = charge state: 3, modification: Methyl (K)
# [17] = charge state: 2, modification: Succinyl
# [18] = charge state: 3, modification: Trimethyl (K)
# [19] = charge state: 2, modification: hydroxyisobutyryl
substance,measurement,setting,value
RGGFAVQAK [_R(Citrullination (R))GGFAVQAK_],collision cross section,[1],326.29 ± 0.63 Å²
RGGFAVQAK [_R(Methyl (R))GGFAVQAK_],collision cross section,[2],338.01 ± 1.4 Å²
RGPPGAK [_RGPP(Hydroxyproline)GAK_],collision cross section,"charge state: 2, modification: Hydroxyproline",303.1 ± 0.0067 Å²
RGVGAGAIAK [_R(Citrullination (R))GVGAGAIAK_],collision cross section,[1],319.31 Å²
RGVGAGAIAK [_R(Methyl (R))GVGAGAIAK_],collision cross section,[2],328.76 ± 0.75 Å²
RLDINTNTYTSQDLK [_RLDINTNTYTS(HexNAc (ST))QDLK_],collision cross section,[3],511.61 ± 0.96 Å²
RLPNVHGR [_R(Citrullination (R))LPNVHGR_],collision cross section,[1],340.93 ± 1.6 Å²
same,collision cross section,"charge state: 3, modification: Citrullination (R)",417.11 ± 3.5 Å²
RLPNVHGR [_R(Methyl (R))LPNVHGR_],collision cross section,[2],332.28 ± 1.8 Å²
same,collision cross section,[4],421.48 ± 3.9 Å²
RLPTTGYLVYR [_R(Citrullination (R))LPTTGYLVYR_],collision cross section,[1],383.11 ± 0.23 Å²
RLPTTGYLVYR [_R(Methyl (R))LPTTGYLVYR_],collision cross section,[2],391.98 Å²
same,collision cross section,[4],476.6 ± 3.2 Å²
SAGSVESPSVSSTHR [_SAGSVESPSVS(HexNAc (ST))STHR_],collision cross section,[5],412.88 ± 0.14 Å²
SAGSVESPSVSSTHR [_SAGSVESPSVSST(HexNAc (ST))HR_],collision cross section,[3],473.17 ± 1.2 Å²
SALAAAQTQVAEYK [_S(HexNAc (ST))ALAAAQTQVAEYK_],collision cross section,[5],431.97 ± 0.62 Å²
SDDESSQKDIK [_SDDESSQK(Acetyl (K))DIK_],collision cross section,[6],374.03 ± 0.38 Å²
SDDESSQKDIK [_SDDESSQK(Biotin)DIK_],collision cross section,[7],393.46 Å²
SDDESSQKDIK [_SDDESSQK(Butyryl)DIK_],collision cross section,[8],378.95 ± 0.72 Å²
SDDESSQKDIK [_SDDESSQK(Crotonyl)DIK_],collision cross section,[9],379.43 ± 0.8 Å²
SDDESSQKDIK [_SDDESSQK(Dimethyl (K))DIK_],collision cross section,"charge state: 2, modification: Dimethyl (K)",372.77 ± 1.2 Å²
same,collision cross section,"charge state: 3, modification: Dimethyl (K)",434.93 ± 2.1 Å²
SDDESSQKDIK [_SDDESSQK(Formyl)DIK_],collision cross section,[10],368.14 ± 1.1 Å²
SDDESSQKDIK [_SDDESSQK(Gluratylation)DIK_],collision cross section,[11],382.21 ± 1.1 Å²
SDDESSQKDIK [_SDDESSQK(GlyGly (K))DIK_],collision cross section,[12],380.21 ± 0.89 Å²
same,collision cross section,[13],442.7 ± 0.74 Å²
SDDESSQKDIK [_SDDESSQK(Malonyl)DIK_],collision cross section,[14],372.43 ± 0.63 Å²
SDDESSQKDIK [_SDDESSQK(Methyl (K))DIK_],collision cross section,[15],375.97 ± 0.26 Å²
same,collision cross section,[16],439.66 ± 3.3 Å²
SDDESSQKDIK [_SDDESSQK(Propionyl)DIK_],collision cross section,"charge state: 2, modification: Propionyl",377.44 ± 0.33 Å²
SDDESSQKDIK [_SDDESSQK(Succinyl)DIK_],collision cross section,[17],378.1 ± 1 Å²
SDDESSQKDIK [_SDDESSQK(Trimethyl (K))DIK_],collision cross section,"charge state: 2, modification: Trimethyl (K)",380.2 ± 1.7 Å²
same,collision cross section,[18],430.76 ± 2.7 Å²
SDDESSQKDIK [_SDDESSQK(hydroxyisobutyryl)DIK_],collision cross section,[19],383.53 ± 0.55 Å²
SDSGKPYYYNSQTK [_SDSGK(Acetyl (K))PYYYNSQTK_],collision cross section,[6],419.63 ± 2 Å²
SDSGKPYYYNSQTK [_SDSGK(Biotin)PYYYNSQTK_],collision cross section,[7],440.01 ± 0.23 Å²
SDSGKPYYYNSQTK [_SDSGK(Butyryl)PYYYNSQTK_],collision cross section,[8],426.68 ± 0.77 Å²
SDSGKPYYYNSQTK [_SDSGK(Crotonyl)PYYYNSQTK_],collision cross section,[9],425.72 ± 0.29 Å²
SDSGKPYYYNSQTK [_SDSGK(Formyl)PYYYNSQTK_],collision cross section,[10],417.77 ± 0.18 Å²
SDSGKPYYYNSQTK [_SDSGK(Gluratylation)PYYYNSQTK_],collision cross section,[11],430.3 ± 1.5 Å²
same,collision cross section,"charge state: 3, modification: Glutarylation",493.09 Å²
SDSGKPYYYNSQTK [_SDSGK(GlyGly (K))PYYYNSQTK_],collision cross section,[12],428.35 ± 1.4 Å²
same,collision cross section,[13],476.2 ± 1.7 Å²
SDSGKPYYYNSQTK [_SDSGK(Malonyl)PYYYNSQTK_],collision cross section,[14],422.4 ± 0.57 Å²
SDSGKPYYYNSQTK [_SDSGK(Methyl (K))PYYYNSQTK_],collision cross section,[15],422.21 Å²
same,collision cross section,[16],475.71 ± 2.9 Å²
SDSGKPYYYNSQTK [_SDSGK(Succinyl)PYYYNSQTK_],collision cross section,[17],423.37 ± 1.1 Å²
SDSGKPYYYNSQTK [_SDSGK(Trimethyl (K))PYYYNSQTK_],collision cross section,[18],473.28 ± 2.4 Å²
SDSGKPYYYNSQTK [_SDSGK(hydroxyisobutyryl)PYYYNSQTK_],collision cross section,[19],428.74 ± 0.3 Å²
same,collision cross section,"charge state: 3, modification: hydroxyisobutyryl",490.1 ± 3.9 Å²
